Reference: US20210356479A1 (BLOODWORKS, published 2021)

T1: human Kell glycoprotein, Js^b form (KEL7) (human, UniProt P23276 1-732)
T1 construct: whole, on cells; On human Js^b/Js^b RBCs
T1 sequence (looked up): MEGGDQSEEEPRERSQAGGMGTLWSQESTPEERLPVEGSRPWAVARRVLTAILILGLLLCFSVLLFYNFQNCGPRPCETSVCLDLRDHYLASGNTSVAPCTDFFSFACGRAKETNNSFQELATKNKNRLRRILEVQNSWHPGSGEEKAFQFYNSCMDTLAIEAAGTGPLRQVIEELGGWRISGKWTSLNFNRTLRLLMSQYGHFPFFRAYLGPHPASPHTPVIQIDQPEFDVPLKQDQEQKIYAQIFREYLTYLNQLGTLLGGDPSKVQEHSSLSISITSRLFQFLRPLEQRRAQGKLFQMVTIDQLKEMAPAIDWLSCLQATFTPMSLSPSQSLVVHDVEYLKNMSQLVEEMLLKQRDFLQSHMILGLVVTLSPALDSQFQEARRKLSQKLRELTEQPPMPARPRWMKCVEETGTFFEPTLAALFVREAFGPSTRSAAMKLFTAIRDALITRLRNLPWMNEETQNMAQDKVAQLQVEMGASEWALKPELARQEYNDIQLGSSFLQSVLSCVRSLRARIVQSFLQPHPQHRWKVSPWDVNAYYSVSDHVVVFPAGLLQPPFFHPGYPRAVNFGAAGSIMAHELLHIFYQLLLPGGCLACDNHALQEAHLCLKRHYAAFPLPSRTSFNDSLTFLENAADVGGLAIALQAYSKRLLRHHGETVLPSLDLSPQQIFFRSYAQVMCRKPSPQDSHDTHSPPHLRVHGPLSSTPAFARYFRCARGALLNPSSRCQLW

T2: human Kell glycoprotein, K form (KEL1) (human, UniProt P23276 1-732)
T2 construct: whole, on cells; On human K/K or K+k+ RBCs and on RBCs of K transgenic mice; also called K antigen; K variant
T2 sequence (looked up): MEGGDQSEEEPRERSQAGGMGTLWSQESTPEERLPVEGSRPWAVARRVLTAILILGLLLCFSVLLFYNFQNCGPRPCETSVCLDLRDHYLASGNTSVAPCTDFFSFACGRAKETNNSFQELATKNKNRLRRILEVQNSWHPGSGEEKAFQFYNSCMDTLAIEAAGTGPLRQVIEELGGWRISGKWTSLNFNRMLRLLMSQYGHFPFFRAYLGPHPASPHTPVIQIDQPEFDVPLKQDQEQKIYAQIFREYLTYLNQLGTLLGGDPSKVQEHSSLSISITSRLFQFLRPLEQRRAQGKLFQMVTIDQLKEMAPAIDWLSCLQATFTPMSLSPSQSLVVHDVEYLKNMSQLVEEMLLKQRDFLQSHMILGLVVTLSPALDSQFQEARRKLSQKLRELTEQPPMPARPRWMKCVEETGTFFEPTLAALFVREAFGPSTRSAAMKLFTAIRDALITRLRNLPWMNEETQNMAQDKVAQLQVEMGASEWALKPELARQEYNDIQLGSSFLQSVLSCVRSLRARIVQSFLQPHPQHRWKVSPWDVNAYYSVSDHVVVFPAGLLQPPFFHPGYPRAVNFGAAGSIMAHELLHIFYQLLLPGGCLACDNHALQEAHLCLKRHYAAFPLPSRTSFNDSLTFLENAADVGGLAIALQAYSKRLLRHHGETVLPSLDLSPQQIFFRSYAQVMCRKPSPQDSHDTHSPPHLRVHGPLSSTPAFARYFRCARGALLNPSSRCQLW

T3: human Kell glycoprotein, k form (KEL2) (human, UniProt P23276 1-732)
T3 construct: whole, on cells; On human k/k or K-k+ RBCs; also called k antigen
T3 sequence (looked up): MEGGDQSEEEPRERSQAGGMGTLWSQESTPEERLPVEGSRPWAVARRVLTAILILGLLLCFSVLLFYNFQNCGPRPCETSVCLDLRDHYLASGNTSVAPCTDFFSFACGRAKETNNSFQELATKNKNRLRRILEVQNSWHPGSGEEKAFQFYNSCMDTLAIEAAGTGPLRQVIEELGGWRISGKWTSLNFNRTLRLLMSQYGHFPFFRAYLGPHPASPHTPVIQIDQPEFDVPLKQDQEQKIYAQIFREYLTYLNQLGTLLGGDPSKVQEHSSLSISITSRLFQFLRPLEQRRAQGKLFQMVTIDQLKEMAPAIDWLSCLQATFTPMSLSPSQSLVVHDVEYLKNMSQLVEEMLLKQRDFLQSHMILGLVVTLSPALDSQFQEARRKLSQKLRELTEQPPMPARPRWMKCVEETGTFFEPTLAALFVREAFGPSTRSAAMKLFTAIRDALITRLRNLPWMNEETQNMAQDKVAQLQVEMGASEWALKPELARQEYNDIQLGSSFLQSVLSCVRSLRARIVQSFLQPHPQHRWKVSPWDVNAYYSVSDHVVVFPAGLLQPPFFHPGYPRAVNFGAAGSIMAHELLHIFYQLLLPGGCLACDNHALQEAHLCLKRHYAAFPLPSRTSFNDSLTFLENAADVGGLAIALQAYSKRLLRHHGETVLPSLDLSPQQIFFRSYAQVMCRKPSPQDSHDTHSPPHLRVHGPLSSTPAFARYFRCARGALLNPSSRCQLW

T4: human Kell glycoprotein, Kp^b form (KEL4) (human, UniProt P23276 1-732)
T4 construct: whole, on cells; On human Kp^b/Kp^b RBCs
T4 sequence (looked up): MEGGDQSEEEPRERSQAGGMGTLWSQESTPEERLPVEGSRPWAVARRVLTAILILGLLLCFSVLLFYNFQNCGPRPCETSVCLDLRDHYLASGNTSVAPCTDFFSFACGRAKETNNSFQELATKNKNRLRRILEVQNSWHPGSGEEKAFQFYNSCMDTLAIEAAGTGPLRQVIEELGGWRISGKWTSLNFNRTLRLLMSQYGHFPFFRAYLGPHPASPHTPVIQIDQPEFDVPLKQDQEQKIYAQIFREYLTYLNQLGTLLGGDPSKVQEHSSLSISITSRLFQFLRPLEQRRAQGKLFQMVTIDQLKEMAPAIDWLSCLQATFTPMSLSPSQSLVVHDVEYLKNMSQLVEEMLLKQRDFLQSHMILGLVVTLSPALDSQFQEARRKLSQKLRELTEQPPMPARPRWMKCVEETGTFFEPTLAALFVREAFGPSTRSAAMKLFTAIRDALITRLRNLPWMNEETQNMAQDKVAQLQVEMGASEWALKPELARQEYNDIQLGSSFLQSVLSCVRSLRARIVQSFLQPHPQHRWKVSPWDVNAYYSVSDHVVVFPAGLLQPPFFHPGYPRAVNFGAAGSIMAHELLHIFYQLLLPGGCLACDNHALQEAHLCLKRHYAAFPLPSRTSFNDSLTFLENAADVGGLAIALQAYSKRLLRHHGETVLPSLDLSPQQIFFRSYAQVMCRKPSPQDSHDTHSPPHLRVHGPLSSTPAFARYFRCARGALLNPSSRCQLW


Key:
[1] = biological target: T1, human Kell glycoprotein, Js^b form …; experiment: flow cytometry, indirect immunofluorescence on Js^b/Js^b human RBCs
Procedure: (§1) The specificities of the antibodies were determined to be: PUMA ½ (KEL1 or K), PUMA 3 (a common Kell epitope, PUMA 4 (KEL4 or Kp^b). Flow cytometry was utilized to test antibody specificity by indirect immunofluorescence, using the monocolonal antibodies as the primary reagent and a goat-anti-mouse antibody (conjugated to allophycocyanin) as a secondary antibody. Different target cells expressing different Kell variants were used to determine specificity. Targets included RBCs that phenotyped as homozygous for the 3 main antithetical antigens in the Kell system, K/K, k/k, Kp^{b/}Kp^b, Kp^{a/}Kp^a. Js^{b/}J^b, Js^{a/}Js^a. Differential binding to such tarets tests specificity. In the case of PUMA ½, binding was only observed when K was present but not on k/k RBCs. In the case of PUMA 3, binding was observed on all RBCs regardless of phenotype for K/k, Kp^{a/}Kp^{b,} or Js^{a/}Js^b, thus indicating a common epitope outside these systems. However, PUMA 3 bound to only KELL glycoprotein transgenic murine RBCs and not wild-type murine RBCs; thus, the epitope recognized by PUMA 3 is on the KELL molecule, but not K/k, Kp^{a/}Kp^b, or Js^{a/}Js^b. For PUMA 4, binding was only observed when Kp^b was present but not on Kp^{a/}Kp^a RBCs.

[2] = biological target: T2, human Kell glycoprotein, K form (KEL1); experiment: flow cytometry, indirect immunofluorescence on K/K human RBCs
Procedure: as §1

[3] = biological target: T3, human Kell glycoprotein, k form (KEL2); experiment: flow cytometry, indirect immunofluorescence on k/k human RBCs
Procedure: as §1

[4] = biological target: T4, human Kell glycoprotein, Kp^b form …; experiment: flow cytometry, indirect immunofluorescence on Kp^b/Kp^b human RBCs
Procedure: as §1

[5] = biological target: T2, human Kell glycoprotein, K form (KEL1); experiment: flow cytometry on K transgenic mouse RBCs
[6] = biological target: T4, human Kell glycoprotein, Kp^b form …; experiment: flow cytometry, indirect immunofluorescence on human RBCs
Procedure: as §1

| binding result [1] | binding result [2] | binding result [3] | binding result [4] | binding result [5] | binding result [6] | Binder |
| --- | --- | --- | --- | --- | --- | --- |
| binds | binds | binds | binds |  |  | PUMA 3 monoclonal antibody (antibody, V domains shown, Mouse monoclonal from hybridoma) VH: QVQLKESGPGLLAPSQSLSITCTVSGFSLTSYGVYWVRQPPGKGLEWLGIIWGDGSTNYQSVLRSRLSITKDDSKSQVFLKLNSLQTDDTATYYCAKRGDYDVAYWGQGTLVTVSA VL: DIVLTQSPASLAVSLGQRAIISCKASQTVSEVGTSLMHWYQQRPGQQPKLLIYRTSNLEAGVPTRFSGSGSRTDFTLNIHPVEEDDAATYYCQQSREFPWTFGGGTRLEIK |
|  |  | no binding |  | binds |  | PUMA 1 monoclonal anti-K antibody (antibody, mouse IgG2a, V domains shown, also called PUMA 2; PUMA ½) VH: EVQLQQSGPELVKPGASVKMSCKASGYTFTDYYMKWVKQSHGKSLEWIGDLNPNNGDTFYNQKFKGKATLTVDKSSSTAYIQLNSLTSEDSAVYYCAREAGSSFGSSCNYWGQGTTLTVS VL: SVVMTQTPKFLLVSAGDRVTITCKASQTVSKDVAWYQQQPGQSPKLLIYYASNRYTGVPDRFTGSGYGTDFTFTISTVQAEDLAVYFCQQDYSSPYTFGGGTKLEIK |
|  |  |  |  |  | binds | PUMA 4 monoclonal antibody (antibody, V domains shown, Mouse monoclonal from hybridoma) VH: EVKLEESGGGLVQPGGSMKLSCVASGFTFSNYWMNWVRQPPEKGLEWVAEIRLNSNNYATHYAESVKGKFTISRDDSKSSVYLQMNDLRAEDTGIYYCTRNWDFAWFDSWGQGTLVTVSA VL: DIVMTQSHKFMSTSVGDRVSITCKASQDVSTVVAWYQQKPGQSPKLLIYWASTRHTGVPDRFTGSGSGTDYTLTISSVQAEDLALYYCQQHYTTPFTFGSGTKLEIK |
